The test system of one assay is HT-29 cells. Kind of assay: CellTiter-Glo inhibition of cell proliferation and survival, HT-29. The class given is cell-based, human. To be noted: HT-29 cell line. As to the method:
(§1) The antibody drug conjugates were tested against four endogenous cancer cell lines and one isogenic cell line engineered to overexpress the target of interest. FaDu (ATCC No. HTB-43 cultured in Eagle's Minimum Essential Medium+10% FBS), HCC70 (ATCC No. CRL-2315 cultured in RPMI-1640+10% FBS), HCC1954 (ATCC No. CRL-2338 cultured in RPMI-1640+10% FBS) and HT-29 (ATCC No. HTB-38 cultured in McCoy's 5a Medium Modified+10% FBS). The HT-29 cell line was transfected to generate a stable HT-29 cell line expressing the exogenous protein of interest, P-cadherin, HT-29 PCAD+(cultured in McCoy's 5a Medium Modified+10% FBS).
(§2) The ability of the P-cadherin linker variant antibody drug conjugates to inhibit cell proliferation and survival was assessed using the Promega CellTiter-Glo® proliferation assay.
(§3) The cell lines were cultured in media that is optimal for their growth at 5% CO2, 37° C. in a tissue culture incubator. […] Cell viability and cell density were determined using a cell counter (Vi-Cell XR Cell Viability Analyzer, Beckman Coulter). […] Plates were incubated at 5% CO2, 37° C. for 5 days in a tissue culture incubator, after which cell viability was assessed through the addition of 25 μL of CellTiter Glo® (Promega, cat #G7573), a reagent which lyses cells and measures total adenosine triphosphate (ATP) content. […]

The subject of a further assay is HCC1954 cells. The experiment in a line: CellTiter-Glo inhibition of cell proliferation and survival, HCC1954. The class given is cell-based, human. The conditions noted are these: HCC-1954 cell line. How it is done: as §1, §2, §3
The test system of a further assay is HCC70 cells. The experiment in a line: CellTiter-Glo inhibition of cell proliferation and survival, HCC70. It is filed as cell-based, human. To be noted: HCC-70 cell line. How it is done: as §1, §2, §3
The subject of another assay is FaDu cells. The experiment in a line: CellTiter-Glo inhibition of cell proliferation and survival, FaDu. To be noted: FaDu cell line. It is filed as cell-based, human. As to the method:
as §1, §2, §3

The target of assay [1] is P-cadherin, exogenous, stably expressed on HT-29 PCAD+ cells (UniProt P22223 108-829, limits assumed). Kind of assay: cell-based or functional assay.
Sequence of P-cadherin, exogenous, stably expressed on HT-29 PCAD+ cells (P22223 108-829 limits assumed): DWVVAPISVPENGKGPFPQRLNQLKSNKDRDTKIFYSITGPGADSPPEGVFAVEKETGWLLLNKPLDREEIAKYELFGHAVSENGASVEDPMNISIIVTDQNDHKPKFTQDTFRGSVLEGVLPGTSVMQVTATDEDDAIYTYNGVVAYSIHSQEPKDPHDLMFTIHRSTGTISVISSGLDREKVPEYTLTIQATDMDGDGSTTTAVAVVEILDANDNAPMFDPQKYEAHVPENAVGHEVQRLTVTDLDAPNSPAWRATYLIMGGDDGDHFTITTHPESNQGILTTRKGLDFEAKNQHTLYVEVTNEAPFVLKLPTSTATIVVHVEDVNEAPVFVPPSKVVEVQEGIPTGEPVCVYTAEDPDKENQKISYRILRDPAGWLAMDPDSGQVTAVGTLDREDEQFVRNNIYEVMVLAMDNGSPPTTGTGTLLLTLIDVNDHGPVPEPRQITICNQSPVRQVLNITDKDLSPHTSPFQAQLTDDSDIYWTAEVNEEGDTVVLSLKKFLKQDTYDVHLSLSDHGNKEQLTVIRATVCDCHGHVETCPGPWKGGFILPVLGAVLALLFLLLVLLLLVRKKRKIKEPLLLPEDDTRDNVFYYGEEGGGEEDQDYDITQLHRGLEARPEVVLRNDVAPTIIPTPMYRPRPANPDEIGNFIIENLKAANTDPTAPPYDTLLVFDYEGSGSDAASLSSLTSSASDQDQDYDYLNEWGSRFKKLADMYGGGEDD
Assay [2] deals with P-cadherin, endogenous, on HCC70 human triple negative breast cancer cells (human, UniProt P22223 108-829). Kind of assay: cell-based or functional assay.
Sequence of P-cadherin, endogenous, on HCC70 human triple negative breast cancer cells (P22223 108-829): as the sequence (P22223 108-829 limits assumed) above
The mark [3] stands for this setting: value from an individual representative assay.

Where a SMILES comes first, the peptide text is derived from it. [ ]: non-standard residue; d: D form. The star is where a group is joined. Dolaproine = CO[C@@H]([C@@H]1CCCN1)[C@@H](C)C(=O)O; Dil = CC[C@H](C)[C@H](NC)[C@@H](CC(=O)O)OC; X1 = C[C@@H](N*)[C@@H](O)c1ccccc1; NMeV = CN[C@H](C(=O)O)C(C)C

Regarding `CC[C@H](C)[C@@H]([C@@H](CC(=O)N1CCC[C@H]1[C@H](OC)[C@@H](C)C(=O)N[C@H](C)[C@@H](O)c1ccccc1)OC)N(C)C(=O)[C@@H](NC(=O)[C@@H](NC)C(C)C)C(C)C` [Free MMAE, monomethyl auristatin E, reference compound] (H-[NMeV]V[Dil][Dolaproine]-X1), the Amax in the assay on HT-29 cells is listed as 102.30; in the assay on HCC1954 cells, 65.26; with HCC70 cells it was 49.22; in the assay with FaDu cells, 108.80. In addition, the IC50 in the assay with HT-29 cells (setting [3]) came to 0.012 nM; in the assay with HCC1954 cells (setting [3]), 0.056 nM; in the assay on HCC70 cells (setting [3]), 0.022 nM; in the assay on FaDu cells (setting [3]) it was 0.032 nM.

B1: P-Cad mab2-L1-P1 (antibody, V domains shown)
VH: QVQLQQSGPGLVKPSQTLSLTCAISGDSVSSQSAAWNWIRQSPSRGLEWLGRIYYRSKWYNDYALSVKSRITINPDTSKNQFSLQLNSVTPEDTAVYYCARGEGYGREGFAIWGQGTLVTVSS
VL: DIQMTQSPSSLSASVGDRVTITCRASQTISNTLAWYQQKPGKAPKLLIYAASNLQSGVPSRFSGSGSGTDFTLTISSLQPEDFATYYCQQYLSWFTFGQGTKVEIK
modifications: maleimide linker-drug L1-P1 on engineered Cys residues of the constant regions (positions not stated), DAR 3.8
Consider B1, for which, in assay [1], the “Amax, inhibition of cell proliferation and survival (CellTiter-Glo, 5 days), HT-29 PCAD+ cells” value (from here on “Amax, inhibition … HT-29 PCAD+ cells”) amounted to 90; the “IC50 (nM), inhibition of cell proliferation and survival (CellTiter-Glo, 5 days), HT-29 PCAD+ cells” value (“IC50 (nM), inhibition … HT-29 PCAD+ cells” below) turned out to be 0.077 nM. In addition, in assay [2], the “Amax, inhibition of cell proliferation and survival (CellTiter-Glo, 5 days), HCC70 cells” value (“Amax, inhibition … HCC70 cells” below) was 65.1; the “IC50 (nM), inhibition of cell proliferation and survival (CellTiter-Glo, 5 days), HCC70 cells” value (from here on “IC50 (nM), inhibition … HCC70 cells”) is 0.237 nM.

B2: P-Cad mab2-L6-P1 (antibody, V domains shown)
VH: B1 VH
VL: B1 VL
modifications: maleimide linker-drug L6-P1 on engineered Cys residues of the constant regions (positions not stated), DAR 3.8
With B2, in assay [1], the “Amax, inhibition … HT-29 PCAD+ cells” value is 102; the “IC50 (nM), inhibition … HT-29 PCAD+ cells” value was 0.069 nM. Besides, in assay [2], the “Amax, inhibition … HCC70 cells” value amounted to 80.2; the “IC50 (nM), inhibition … HCC70 cells” value was 0.209 nM.

B3: P-Cad mab2-L2-P1 (antibody, V domains shown)
VH: B1 VH
VL: B1 VL
modifications: maleimide linker-drug L2-P1 on engineered Cys residues of the constant regions (positions not stated), DAR 3.9
As to B3, in assay [1], the “Amax, inhibition … HT-29 PCAD+ cells” value was found to be 83.9; the “IC50 (nM), inhibition … HT-29 PCAD+ cells” value was 0.098 nM. In assay [2], the “Amax, inhibition … HCC70 cells” value came to 51; the “IC50 (nM), inhibition … HCC70 cells” value worked out at 0.336 nM.

B4: PCAD-mab2-L7-P2 (antibody, V domains shown)
VH: B1 VH
VL: B1 VL
modifications: linker-drug L7-P2 (structure and conjugation not described in the filing)
As for B4, in assay [2], the “Amax, inhibition … HCC70 cells” value is 171; the “IC50 (nM), inhibition … HCC70 cells” value is 0.004 nM.

B5: P-Cad mab2-L3-P1 (antibody, V domains shown)
VH: B1 VH
VL: B1 VL
modifications: maleimide linker-drug L3-P1 on engineered Cys residues of the constant regions (positions not stated), DAR 4.0
With B5, in assay [1], the “Amax, inhibition … HT-29 PCAD+ cells” value amounted to 86.8; the “IC50 (nM), inhibition … HT-29 PCAD+ cells” value amounted to 0.083 nM. In assay [2], the “Amax, inhibition … HCC70 cells” value amounted to 105; the “IC50 (nM), inhibition … HCC70 cells” value turned out to be 1.35 nM.

B6: P-Cad mab2-L5-P1 (antibody, V domains shown)
VH: B1 VH
VL: B1 VL
modifications: maleimide linker-drug L5-P1 on engineered Cys residues of the constant regions (positions not stated), DAR 3.7
Consider B6, for which, in assay [1], the “Amax, inhibition … HT-29 PCAD+ cells” value was found to be 91.6; the “IC50 (nM), inhibition … HT-29 PCAD+ cells” value came to 0.075 nM. In assay [2], the “Amax, inhibition … HCC70 cells” value amounted to 65.9; the “IC50 (nM), inhibition … HCC70 cells” value amounted to 0.32 nM.

B7: P-Cad mab2-L4-P1 (antibody, V domains shown)
VH: B1 VH
VL: B1 VL
modifications: maleimide linker-drug L4-P1 on engineered Cys residues of the constant regions (positions not stated), DAR 3.9
Turning to B7, in assay [1], the “Amax, inhibition … HT-29 PCAD+ cells” value stood at 86.2; the “IC50 (nM), inhibition … HT-29 PCAD+ cells” value was determined as 0.117 nM. In assay [2], the “Amax, inhibition … HCC70 cells” value is 57.2; the “IC50 (nM), inhibition … HCC70 cells” value was found to be 0.467 nM.

The values above are taken from patent US20230091510A1, “ANTIBODY DRUG CONJUGATES HAVING LINKERS COMPRISING HYDROPHILIC GROUPS” (priority 2019, published 2023).
